According to patent publication US20240117018A1:

Experiments:
Assay in all cases: cell-based or functional assay
[1] = target: HIV-1 Env of pseudovirus CNE17 (HIV-1)
[2] = target: HIV-1 Env of pseudovirus ZM233M.PB6 (HIV-1)
[3] = target: HIV-1 Env of pseudovirus Ce0393_C3 (HIV-1)
[4] = target: HIV-1 Env of pseudovirus Ce2010_F5 (HIV-1)
[5] = target: HIV-1 Env of pseudovirus Ce704809221_1B3 (HIV-1)
[6] = target: HIV-1 Env of pseudovirus 1056_10_TA11_1826 (HIV-1)
[7] = target: HIV-1 Env of pseudovirus Q842.d12 (HIV-1)
[8] = target: HIV-1 Env of pseudovirus AC10.0.29 (HIV-1)
[9] = target: HIV-1 Env of pseudovirus HIV-0013095-2.11 (HIV-1)
[10] = target: HIV-1 Env of pseudovirus 1006_11_C3_1601 (HIV-1)
[11] = target: HIV-1 Env of pseudovirus RHPA4259.7 (HIV-1)
[12] = target: HIV-1 Env of pseudovirus CNE8 (HIV-1)
[13] = target: HIV-1 Env of pseudovirus QH0692.42 (HIV-1)
[14] = target: HIV-1 Env of pseudovirus TRJO4551.58 (HIV-1)
[15] = target: HIV-1 Env of pseudovirus ZM135M.PL10a (HIV-1)
[16] = target: HIV-1 Env of pseudovirus Du172.17 (HIV-1)
[17] = target: HIV-1 Env of pseudovirus Du422.1 (HIV-1)
[18] = target: HIV-1 Env of pseudovirus 1012_11_TC21_3257 (HIV-1)
[19] = target: HIV-1 Env of pseudovirus CAP45.2.00.G3 (HIV-1)
[20] = target: HIV-1 Env of pseudovirus ZM214M.PL15 (HIV-1)
[21] = target: HIV-1 Env of pseudovirus 249M B10 (HIV-1)
[22] = target: HIV-1 Env of pseudovirus ZM197M.PB7 (HIV-1)
[23] = target: HIV-1 Env of pseudovirus Q259.d2.17 (HIV-1)
[24] = target: HIV-1 Env of pseudovirus ZM109F.PB4 (HIV-1)
[25] = target: HIV-1 Env of pseudovirus WEAU_d15_410_787 (HIV-1)
[26] = target: HIV-1 Env of pseudovirus CNE58 (HIV-1)
[27] = target: HIV-1 Env of pseudovirus BF1266.431a (HIV-1)
[28] = target: HIV-1 Env of pseudovirus ZM249M.PL1 (HIV-1)
[29] = target: HIV-1 Env of pseudovirus Ce2060_G9 (HIV-1)
[30] = target: HIV-1 Env of pseudovirus Q461.e2 (HIV-1)
[31] = target: HIV-1 Env of pseudovirus MS208.A1 (HIV-1)
[32] = target: HIV-1 Env of pseudovirus CNE5 (HIV-1)
[33] = target: HIV-1 Env of pseudovirus 6240_08_TA5_4622 (HIV-1)
[34] = target: HIV-1 Env of pseudovirus CNE53 (HIV-1)
[35] = target: HIV-1 Env of pseudovirus 6244_13_B5_4576 (HIV-1)
[36] = target: HIV-1 Env of pseudovirus 62357_14_D3_4589 (HIV-1)
[37] = target: HIV-1 Env of pseudovirus ZM53M.PB12 (HIV-1)
[38] = target: HIV-1 Env of pseudovirus 7030102001E5(Rev-) (HIV-1)

PGT128 (antibody)
neutralization IC50 [1]: 0.432 µg/mL | neutralization IC80 [1]: 1.99 µg/mL | neutralization IC50 [2]: > 50 µg/mL | neutralization IC80 [2]: > 50 µg/mL | neutralization IC50 [3]: > 50 µg/mL | neutralization IC80 [3]: > 50 µg/mL | neutralization IC50 [4]: > 50 µg/mL | neutralization IC80 [4]: > 50 µg/mL | neutralization IC50 [5]: 0.026 µg/mL | neutralization IC80 [5]: 0.072 µg/mL | neutralization IC50 [6]: < 0.001 µg/mL | neutralization IC80 [6]: 0.008 µg/mL | neutralization IC50 [7]: 0.008 µg/mL | neutralization IC80 [7]: 0.102 µg/mL | neutralization IC50 [8]: 0.008 µg/mL | neutralization IC80 [8]: 0.018 µg/mL | neutralization IC50 [9]: > 50 µg/mL | neutralization IC80 [9]: > 50 µg/mL | neutralization IC50 [10]: 0.011 µg/mL | neutralization IC80 [10]: 0.04 µg/mL | neutralization IC50 [11]: 0.026 µg/mL | neutralization IC80 [11]: 0.109 µg/mL | IC50 (Titer in TZM.bl cells) [12]: 0.019 µg/mL | IC80 (Titer in TZM.bl cells) [12]: 0.052 µg/mL | neutralization IC50 [13]: 0.029 µg/mL | neutralization IC80 [13]: 0.081 µg/mL | neutralization IC50 [14]: 0.018 µg/mL | neutralization IC80 [14]: 0.041 µg/mL | neutralization IC50 [15]: > 50 µg/mL | neutralization IC80 [15]: > 50 µg/mL | neutralization IC50 [16]: 0.028 µg/mL | neutralization IC80 [16]: 0.08 µg/mL | neutralization IC50 [17]: 0.039 µg/mL | neutralization IC80 [17]: 0.113 µg/mL | neutralization IC50 [18]: 0.011 µg/mL | neutralization IC80 [18]: 0.033 µg/mL | neutralization IC50 [19]: > 50 µg/mL | neutralization IC80 [19]: > 50 µg/mL | neutralization IC50 [20]: 1.5 µg/mL | neutralization IC80 [20]: 29.4 µg/mL | neutralization IC50 [21]: 7.87 µg/mL | neutralization IC80 [21]: > 50 µg/mL | neutralization IC50 [22]: > 50 µg/mL | neutralization IC80 [22]: > 50 µg/mL | neutralization IC50 [23]: > 50 µg/mL | neutralization IC80 [23]: > 50 µg/mL | neutralization IC50 [24]: > 50 µg/mL | neutralization IC80 [24]: > 50 µg/mL | neutralization IC50 [25]: 0.032 µg/mL | neutralization IC80 [25]: 0.153 µg/mL | neutralization IC50 [26]: 13.8 µg/mL | neutralization IC80 [26]: > 50 µg/mL | neutralization IC50 [27]: > 50 µg/mL | neutralization IC80 [27]: > 50 µg/mL | neutralization IC50 [28]: 39.7 µg/mL | neutralization IC80 [28]: > 50 µg/mL | neutralization IC50 [29]: > 50 µg/mL | neutralization IC80 [29]: > 50 µg/mL | neutralization IC50 [30]: > 50 µg/mL | neutralization IC80 [30]: > 50 µg/mL | neutralization IC50 [31]: > 50 µg/mL | neutralization IC80 [31]: > 50 µg/mL | IC50 (Titer in TZM.bl cells) [32]: 0.018 µg/mL | IC80 (Titer in TZM.bl cells) [32]: 0.253 µg/mL | neutralization IC50 [33]: 0.019 µg/mL | neutralization IC80 [33]: 0.055 µg/mL | neutralization IC50 [34]: 0.01 µg/mL | neutralization IC80 [34]: 0.049 µg/mL | neutralization IC50 [35]: 0.02 µg/mL | neutralization IC80 [35]: 0.076 µg/mL | neutralization IC50 [36]: 1.14 µg/mL | neutralization IC80 [36]: > 50 µg/mL | neutralization IC50 [37]: > 50 µg/mL | neutralization IC80 [37]: > 50 µg/mL | neutralization IC50 [38]: 0.007 µg/mL | neutralization IC80 [38]: 0.022 µg/mL
